Experimental data: patent US20080207449A1 (CROPDESIGN N V, published 2008)

Experiments:
[1] = molecular target: T1, empty pGBT9 (GAL4 DNA-binding domain alone) (UniProt P04386 1-147); test: yeast two-hybrid, growth on His- minimal medium; both vectors empty; legend: -, no interaction
T1 construct: empty bait vector, control for specificity; also called pBGT9
Protocol: Different combinations between bait (pGBTE2Fa226-356, pGBTE2Fb-Rb, or pGBTE2Fb 1-127, SEQ ID NO:207) and prey constructs were transformed into yeast cells and assayed for their ability to grow on His⁻ minimal media after 3 days of incubation at 30° C. Bait plasmids co-transformed with empty pAD-GAL424 and prey plasmids co-transformed with empty pGBT9 were assessed along as controls for the specificity of the interaction.
Different combinations between AtE2Fs bait and AtDPs prey constructs were tested for growth on His minimal media. −, no interaction; +, positive interaction; NT, not tested.

[2] = molecular target: T2, pGBTE2Fb-Rb: GAL4 DNA-binding domain fusion of AtE2Fb amino acids 1-385 (lacking the Rb-binding domain) (Arabidopsis); test: yeast two-hybrid, growth on His- minimal medium; empty prey vector control; legend: -, no interaction
T2 construct: also called E2F3 N-terminal; E2Fb (=E2F3) N-terminal domain

[3] = molecular target: T3, pGBTE2Fa226-356: GAL4 DNA-binding domain fusion of AtE2Fa amino acids 226-356 (Arabidopsis); test: as above
T3 construct: also called E2F5 dimerisation domain; E2Fa (=E2F5) dimerization domain

[4] = molecular target: pGBTE2Fb 1-127: GAL4 DNA-binding domain fusion of AtE2Fb amino acids 1-127 (Arabidopsis); test: as above
[5] = molecular target: T4, pGBT DPa 1-292: GAL4 DNA-binding domain fusion of AtDPa 1-292 (Arabidopsis thaliana); test: as above
T4 construct: its construction is not described

[6] = molecular target: T5, pGBT DPb 1-385: GAL4 DNA-binding domain fusion of AtDPb 1-385 (Arabidopsis thaliana); test: as above
T5 construct: its construction is not described

[7] = molecular target: T6, HA-tagged wild-type AtE2Fb, in vitro translated (Arabidopsis, UniProt Q9FV71 1-469); test: co-immunoprecipitation (anti-HA) of in vitro co-translated tagged proteins, SDS-PAGE autoradiography
T6 construct: wild-type (whole) protein; also called HA-AtE2Fb; E2F3
Protocol: (§1) In vitro transcription and translation experiments were performed using the TNT T7-coupled wheat germ extract kit (Promega) primed with appropriate plasmids for 90 min at 30° C. For immunoprecipitation, 10 μl of the total in vitro translated extract (50 μl) was diluted at 1:5 in Nonidet P40 buffer (50 mM Tris, pH 7.4, 150 mM NaCl, 1% Nonidet P40, 1 mM phenylmethylsulfonyl fluoride, 10 μg/ml leupeptin/aprotinin/pepstatin) and incubated for 2 h at 4° C. with anti-c-myc (9E10; BabCo) or anti-HA (16B12; BabCo) antibodies. Protein-A-Sepharose (40 μl 25% (v/v)) was added and incubated for 1 h at 4° C., then the beads were washed four times with Nonidet P40 buffer. Immune complexes were eluted with 10 μl […] sodium dodecyl sulfate (SDS) sample buffer and analyzed by 10% or 15% SDS-PAGE and by autoradiography.
(§2) Similar results were obtained by two-hybrid analysis (see Table 5 of Example 12). To test whether the structural requirements for heterodimerization of the AtDPs were similar to those of their animal homologs, several deletion mutants of AtDPa and AtDPb were constructed (for a schematic illustration, see FIGS. 52 and 53), tagged with the c-myc epitope (FIGS. 54 and 55, panels A). The interactions between the mutant AtDPs and AtE2Fb were analyzed in immunoprecipitation experiments with the specific anti-HA or anti-c-myc antibodies ([…], panels B and C, respectively). […]

[8] = molecular target: T6, HA-tagged wild-type AtE2Fb, in vitro …; test: co-immunoprecipitation (anti-HA and anti-c-myc) of in vitro co-translated tagged proteins, SDS-PAGE autoradiography
Protocol: as §1, §2

T6 sequence (Q9FV71 1-469, tags or fused parts left off): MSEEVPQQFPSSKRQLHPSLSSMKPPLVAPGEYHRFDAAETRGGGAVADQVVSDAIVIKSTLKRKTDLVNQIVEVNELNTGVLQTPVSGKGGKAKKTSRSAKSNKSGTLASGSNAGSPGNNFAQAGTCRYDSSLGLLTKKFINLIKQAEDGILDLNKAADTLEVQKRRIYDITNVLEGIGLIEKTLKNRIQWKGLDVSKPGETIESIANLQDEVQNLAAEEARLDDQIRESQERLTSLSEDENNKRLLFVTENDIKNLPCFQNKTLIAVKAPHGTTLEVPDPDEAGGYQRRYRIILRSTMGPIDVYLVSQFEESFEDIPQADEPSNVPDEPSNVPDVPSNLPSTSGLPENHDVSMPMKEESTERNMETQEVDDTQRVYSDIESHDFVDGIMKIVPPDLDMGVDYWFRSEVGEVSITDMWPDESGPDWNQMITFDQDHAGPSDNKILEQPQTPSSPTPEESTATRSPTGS

B1: empty pAD-GAL424 (GAL4 transactivation domain alone) (other, UniProt P04386 768-881, looked up)
chain: ANFNQSGNIADSSLSFTFTNSSNGPNLITTQTNSQALSQPIASSNVHDNFMNNEITASKIDDGNNSKPLSPGWTDQTAYNAFGITTGMFNTTTMDDVYNYLFDDEDTPPNPKKE
notes: empty prey vector, control for specificity
- binding result [1]: no binding
- binding result [2]: no binding
- binding result [3]: no binding
- binding result [4]: no binding
- binding result [5]: no binding
- binding result [6]: no binding

B2: c-myc-tagged AtDPa 121-213, in vitro translated (other)
chain: EQKLISEEDLEQKLISEEDLIIARDKKEIRWKGLPITCKKDVEEVKMDRNKVMSSVQKKAAFLKELREKVSSLESLMSRNQEMVVKTQGPAEGFTLPFILLETNPHAVVEIEI
notes: also called c-myc-AtDPa 121-213; predicted dimerization domain of the AtDPa
- binding result [7]: no binding

B3: c-myc-tagged AtDPa 172-292, in vitro translated (other)
chain: EQKLISEEDLEQKLISEEDLSLESLMSRNQEMVVKTQGPAEGFTLPFILLETNPHAVVEIEISEDMQLVHLDFNSTPFSVHDDAYILKLMQEQKQEQNRVSSSSSTHHQSQHSSAHSSSSSCIASGTSGPVCWNSGSIDTR
notes: also called c-myc-AtDPa 172-292
- binding result [8]: no binding
